The assay addresses Vorin-cat (C-terminal catalytic mART domain of Vorin), wild type (Erwinia amylovora ATCC BAA-2158). The experiment in a line: SEC; IMAC-purified Vorin-cat/VorinI (5 mg) on HiLoad 16/60 Superdex-200; fractions analysed by SDS-PAGE with Coomassie stain; dialysed against 50 mM Tris pH 7.5, 250 mM NaCl, 10% glycerol before the run. (SEC sorts molecules by how far they enter the pores of the column.)

For “VorinI (Vorin Immunity protein) (natural protein)”, the stoichiometry N (VorinI per Vorin-cat) was found to be 1.

The values are drawn from paper PMC7764402.
